The source of these data is ChEMBL document CHEMBL1136363, “Rational approaches towards reversible inhibition of type B monoamine oxidase. Design and evaluation of a novel 5H-Indeno[1,2-c]pyridazin-5-one derivative” (Bioorg Med Chem Lett, 2003).

Substrate in series [1]: CN1CC=C(C2CCCN2C)CC1
The experiment in a line: Km value for Monoamine oxidase B was determined in baboon liver tissue. More on the design: species or system Papio hamadryas.

Substrate in series [2]: CN1CC=C(C2CCCN2C)CC1
The experiment in a line: Km value for Monoamine oxidase A was determined in human placental tissue.

B1: Amine oxidase [flavin-containing] B (Homo sapiens) (protein)
chain: MSNKCDVVVVGGGISGMAAAKLLHDSGLNVVVLEARDRVGGRTYTLRNQKVKYVDLGGSYVGPTQNRILRLAKELGLETYKVNEVERLIHHVKGKSYPFRGPFPPVWNPITYLDHNNFWRTMDDMGREIPSDAPWKAPLAEEWDNMTMKELLDKLCWTESAKQLATLFVNLCVTAETHEVSALWFLWYVKQCGGTTRIISTTNGGQERKFVGGSGQVSERIMDLLGDRVKLERPVIYIDQTRENVLVETLNHEMYEAKYVISAIPPTLGMKIHFNPPLPMMRNQMITRVPLGSVIKCIVYYKEPFWRKKDYCGTMIIDGEEAPVAYTLDDTKPEGNYAAIMGFILAHKARKLARLTKEERLKKLCELYAKVLGSLEALEPVHYEEKNWCEEQYSGGCYTTYFPPGILTQYGRVLRQPVDRIYFAGTETATHWSGYMEGAVEAGERAAREILHAMGKIPEDEIWQSEPESVDVPAQPITTTFLERHLPSVPGLLRLIGLTTIFSATALGFLAHKRGLLVRV
In general, Km refers to the concentration of substrate that gives half-maximal velocity. As for B1, the Km in series [1] was determined as 60.9 µM.

B2: Amine oxidase [flavin-containing] A (Homo sapiens) (protein)
chain: MENQEKASIAGHMFDVVVIGGGISGLSAAKLLTEYGVSVLVLEARDRVGGRTYTIRNEHVDYVDVGGAYVGPTQNRILRLSKELGIETYKVNVSERLVQYVKGKTYPFRGAFPPVWNPIAYLDYNNLWRTIDNMGKEIPTDAPWEAQHADKWDKMTMKELIDKICWTKTARRFAYLFVNINVTSEPHEVSALWFLWYVKQCGGTTRIFSVTNGGQERKFVGGSGQVSERIMDLLGDQVKLNHPVTHVDQSSDNIIIETLNHEHYECKYVINAIPPTLTAKIHFRPELPAERNQLIQRLPMGAVIKCMMYYKEAFWKKKDYCGCMIIEDEDAPISITLDDTKPDGSLPAIMGFILARKADRLAKLHKEIRKKKICELYAKVLGSQEALHPVHYEEKNWCEEQYSGGCYTAYFPPGIMTQYGRVIRQPVGRIFFAGTETATKWSGYMEGAVEAGERAAREVLNGLGKVTEKDIWVQEPESKDVPAVEITHTFWERNLPSVSGLLKIIGFSTSVTALGFVLYKYKLLPRS
For B2, the Km in series [2] came out at 52 µM.
